Here are results for 5 substances from patent US20080279864A1.

Read-outs that look alike come from different tables or passages of the source.

Experiment [1] concerns the target N-type (CaV2.2) Ca2+ channel (α1B with β2a and α2δ) in HEK293 cells (human; rat) (UniProt Q00975). Nature of the experiment: cell-based or functional assay.
A further experiment addresses I-IIC-YFP (rabbit) (UniProt P15381). Nature of the experiment: FRET two-hybrid, relative dissociation constant against the NTB-CFP/I-IIB-YFP pair.
Experiment [2] deals with I-IIB-YFP (human) (UniProt Q00975). The description is as above.
The target is the same in experiment [3]. The description is as above. This is another data set of the same source.
Another experiment has as its target I-IIC-CFP (rabbit) (UniProt P15381). The description is as above.
For experiment [4], the target named is I-IIB(357-482)-pGBKT7 (I-II loop of α1B fused to the GAL4 binding domain) (human). Nature of the experiment: yeast two-hybrid auto-activation control (empty pGADT7), % of colonies surviving on high stringency plates, mean ± SEM.
Experiment [5] concerns the target I-IIC(436-554)-pGBKT7 (I-II loop of α1C fused to the GAL4 binding domain) (rabbit). Described as above.
Experiment [6] addresses NTB(1-44)-pGBKT7 (human). Described as above.
For experiment [7], the target named is NTB(56-95)-pGBKT7 (human). The description is as above.
In experiment [8] the target is I-IIB(357-482)-pGBKT7 (I-II loop of α1B fused to the GAL4 binding domain) (human). Nature of the experiment: yeast two-hybrid auto-activation control (empty pGADT7), filter lift β-galactosidase assay, % of colonies turning blue, mean ± SEM.
Experiment [9] deals with NTB(1-44)-pGBKT7 (human). Described as above.
Experiment [10] deals with NTB(56-95)-pGBKT7 (human). Described as above.

I-IIB-YFP (human), sequence (Q00975 357-482): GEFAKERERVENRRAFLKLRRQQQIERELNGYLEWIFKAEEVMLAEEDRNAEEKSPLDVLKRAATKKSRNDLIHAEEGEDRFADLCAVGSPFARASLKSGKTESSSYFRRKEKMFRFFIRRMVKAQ
N-type (CaV2.2) Ca2+ channel (α1B with β2a and α2δ) in HEK293 cells (human; rat), sequence (Q00975 whole entry, stated change not applied, chain 1 of 3, other chains not shown): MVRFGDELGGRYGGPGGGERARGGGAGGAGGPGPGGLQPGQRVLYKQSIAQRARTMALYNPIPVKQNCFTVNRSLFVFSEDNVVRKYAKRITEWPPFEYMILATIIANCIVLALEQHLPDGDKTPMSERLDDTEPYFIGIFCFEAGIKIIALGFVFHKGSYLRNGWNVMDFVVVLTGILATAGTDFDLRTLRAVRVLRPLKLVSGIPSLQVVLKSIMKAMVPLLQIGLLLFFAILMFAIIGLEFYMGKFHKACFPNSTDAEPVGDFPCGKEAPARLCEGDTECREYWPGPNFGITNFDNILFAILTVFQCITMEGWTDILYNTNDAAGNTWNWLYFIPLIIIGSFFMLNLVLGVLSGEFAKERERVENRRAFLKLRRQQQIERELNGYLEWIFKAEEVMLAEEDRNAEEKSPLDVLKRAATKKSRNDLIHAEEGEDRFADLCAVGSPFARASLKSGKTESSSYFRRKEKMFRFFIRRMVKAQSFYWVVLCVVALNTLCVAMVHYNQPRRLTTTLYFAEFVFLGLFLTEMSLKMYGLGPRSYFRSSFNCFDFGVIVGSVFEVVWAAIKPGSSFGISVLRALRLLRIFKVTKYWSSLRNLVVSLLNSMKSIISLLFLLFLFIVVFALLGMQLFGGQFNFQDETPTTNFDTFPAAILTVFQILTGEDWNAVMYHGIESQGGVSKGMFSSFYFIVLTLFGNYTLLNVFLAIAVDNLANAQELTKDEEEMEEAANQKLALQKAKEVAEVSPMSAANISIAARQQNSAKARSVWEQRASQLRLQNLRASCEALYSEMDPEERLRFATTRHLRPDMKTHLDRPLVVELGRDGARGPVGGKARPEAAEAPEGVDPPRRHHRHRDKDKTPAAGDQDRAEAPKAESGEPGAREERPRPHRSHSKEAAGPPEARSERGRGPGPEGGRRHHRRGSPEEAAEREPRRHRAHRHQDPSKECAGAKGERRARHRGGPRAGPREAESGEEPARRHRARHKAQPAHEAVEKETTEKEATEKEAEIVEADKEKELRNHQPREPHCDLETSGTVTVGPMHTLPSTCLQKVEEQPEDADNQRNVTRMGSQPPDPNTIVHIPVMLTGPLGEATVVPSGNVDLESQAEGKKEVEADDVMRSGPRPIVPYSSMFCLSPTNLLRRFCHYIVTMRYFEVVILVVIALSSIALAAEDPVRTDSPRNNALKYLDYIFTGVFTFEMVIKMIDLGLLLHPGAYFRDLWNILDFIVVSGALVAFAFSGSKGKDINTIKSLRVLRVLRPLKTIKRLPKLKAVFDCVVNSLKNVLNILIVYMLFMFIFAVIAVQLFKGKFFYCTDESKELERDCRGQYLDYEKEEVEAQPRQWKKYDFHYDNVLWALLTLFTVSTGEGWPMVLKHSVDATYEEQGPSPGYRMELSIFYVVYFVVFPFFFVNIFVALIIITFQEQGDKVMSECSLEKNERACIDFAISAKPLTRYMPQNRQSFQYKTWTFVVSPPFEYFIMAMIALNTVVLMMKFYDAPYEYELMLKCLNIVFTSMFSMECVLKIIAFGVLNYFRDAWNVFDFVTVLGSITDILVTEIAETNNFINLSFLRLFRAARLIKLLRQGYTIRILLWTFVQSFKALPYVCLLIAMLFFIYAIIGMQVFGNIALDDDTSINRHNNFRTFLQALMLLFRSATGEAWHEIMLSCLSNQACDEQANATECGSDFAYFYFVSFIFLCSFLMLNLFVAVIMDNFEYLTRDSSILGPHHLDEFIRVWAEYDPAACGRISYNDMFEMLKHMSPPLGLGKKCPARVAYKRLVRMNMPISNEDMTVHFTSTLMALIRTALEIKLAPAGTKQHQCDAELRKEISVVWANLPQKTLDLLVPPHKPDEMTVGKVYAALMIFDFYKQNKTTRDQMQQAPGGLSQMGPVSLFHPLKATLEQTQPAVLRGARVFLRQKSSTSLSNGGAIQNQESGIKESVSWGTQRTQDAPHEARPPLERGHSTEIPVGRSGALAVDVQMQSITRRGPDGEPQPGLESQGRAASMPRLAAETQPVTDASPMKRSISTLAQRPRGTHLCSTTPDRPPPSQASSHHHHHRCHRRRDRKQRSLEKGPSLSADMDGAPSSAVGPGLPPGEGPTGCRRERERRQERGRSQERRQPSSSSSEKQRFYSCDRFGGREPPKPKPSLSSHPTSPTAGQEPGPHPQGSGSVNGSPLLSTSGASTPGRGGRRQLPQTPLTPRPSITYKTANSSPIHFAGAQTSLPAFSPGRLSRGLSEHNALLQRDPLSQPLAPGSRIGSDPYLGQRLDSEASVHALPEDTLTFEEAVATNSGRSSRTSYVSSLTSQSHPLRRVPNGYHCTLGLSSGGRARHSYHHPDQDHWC
N-type (CaV2.2) Ca2+ channel (α1B with β2a and α2δ) in HEK293 cells (human; rat), sequence (P54290 25-1091, stated change not applied, chain 3 of 3, other chains not shown, further chain): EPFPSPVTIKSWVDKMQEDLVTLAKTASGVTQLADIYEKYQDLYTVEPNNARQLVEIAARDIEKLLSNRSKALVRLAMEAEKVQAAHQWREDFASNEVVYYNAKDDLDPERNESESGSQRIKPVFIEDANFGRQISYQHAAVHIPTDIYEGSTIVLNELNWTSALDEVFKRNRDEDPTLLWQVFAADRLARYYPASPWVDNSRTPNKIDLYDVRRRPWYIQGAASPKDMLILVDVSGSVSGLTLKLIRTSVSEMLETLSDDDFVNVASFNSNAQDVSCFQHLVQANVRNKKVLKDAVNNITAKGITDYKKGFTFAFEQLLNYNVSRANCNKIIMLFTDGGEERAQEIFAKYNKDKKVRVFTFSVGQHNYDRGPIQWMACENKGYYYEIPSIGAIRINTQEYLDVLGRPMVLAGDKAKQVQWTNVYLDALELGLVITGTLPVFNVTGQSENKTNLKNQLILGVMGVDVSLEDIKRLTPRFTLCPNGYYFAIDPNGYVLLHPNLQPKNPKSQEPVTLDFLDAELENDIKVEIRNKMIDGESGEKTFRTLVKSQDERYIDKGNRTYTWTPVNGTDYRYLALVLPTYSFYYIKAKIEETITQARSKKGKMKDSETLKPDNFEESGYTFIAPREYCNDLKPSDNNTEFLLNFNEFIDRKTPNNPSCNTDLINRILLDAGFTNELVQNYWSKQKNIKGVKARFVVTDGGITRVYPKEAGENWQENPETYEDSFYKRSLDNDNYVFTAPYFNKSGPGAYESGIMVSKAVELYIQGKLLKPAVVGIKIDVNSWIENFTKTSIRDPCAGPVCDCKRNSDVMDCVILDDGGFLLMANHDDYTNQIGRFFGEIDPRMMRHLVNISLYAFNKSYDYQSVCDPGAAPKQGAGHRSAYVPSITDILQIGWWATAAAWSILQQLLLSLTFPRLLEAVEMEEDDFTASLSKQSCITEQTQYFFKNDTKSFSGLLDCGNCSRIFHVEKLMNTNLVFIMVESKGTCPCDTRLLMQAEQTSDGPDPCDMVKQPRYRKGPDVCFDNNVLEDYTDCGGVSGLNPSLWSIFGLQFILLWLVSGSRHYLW
I-IIC-YFP (rabbit), sequence (P15381 436-554): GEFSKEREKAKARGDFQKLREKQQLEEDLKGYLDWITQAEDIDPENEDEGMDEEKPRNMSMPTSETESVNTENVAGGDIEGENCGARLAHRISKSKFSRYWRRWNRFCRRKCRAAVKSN
I-IIC-CFP (rabbit), sequence (P15381 436-554): as above

In experiment [1], “Gβγ (G protein β1 and γ2 subunits coexpressed) (from UniProt P62871 2-340; P63212 2-68)” came in with a W(∞), fraction of channels residing in the willing configuration at steady state, 0 mV (compound-state analysis) of 0.6 and a τ, time-constant with which the steady state is achieved, 0 mV (compound-state analysis) of 60 ms.

With NTB-CFP (from UniProt Q00975 1-95), the Kd,EFF relative to NTB/I-IIB with I-IIC-YFP (rabbit) was over 10 fold.

Take NTC-CFP (from UniProt P15381 1-53): the Kd,EFF relative to NTB/I-IIB with I-IIB-YFP (human) [2] is 8 fold; with I-IIB-YFP (human) [3], over 10 fold.

NTC-YFP (from UniProt P15381 1-53) came in with a Kd,EFF relative to NTB/I-IIB in the experiment with I-IIC-CFP (rabbit) of over 10 fold.

As to “pGADT7 (empty vector; the isolated GAL4 activating domain itself) (from UniProt P04386 768-881)”, the High Stringency (%) came out at 18.7% in [4], 8.44% in [5], 0.98% with NTB(1-44)-pGBKT7 (human) [6] and 2.11% in experiment [7]. In addition, the Filter Lift Assay (%) in experiment [8] is 9.18%; with NTB(1-44)-pGBKT7 (human) [9] it was 47.9%; in [10], 32.2%.
